Measurements reported in PMC11143359 (2024).

B1: Lag3-Myc, full-length (FL), in HEK293FT cells [not stated] / human FLAG-APLP1, full length [human] (parent complex)
chain 1: GPGKELPVVWAQEGAPVHLPCSLKSPNLDPNFLRRGGVIWQHQPDSGQPTPIPALDLHQGMPSPRQPAPGRYTVLSVAPGGLRSGRQPLHPHVQLEERGLQRGDFSLWLRPALRTDAGEYHATVRLPNRALSCSLRLRVGQASMIASPSGVLKLSDWVLLNCSFSRPDRPVSVHWFQGQNRVPVYNSPRHFLAETFLLLPQVSPLDSGTWGCVLTYRDGFNVSITYNLKVLGLEPVAPLTVYAAEGSRVELPCHLPPGVGTPSLLIAKWTPPGGGPELPVAGKSGNFTLHLEAVGLAQAGTYTCSIHLQGQQLNATVTLAVITVTPKSFGLPGSRGKLLCEVTPASGKERFVWRPLNNLSRSCPGPVLEIQEARLLAERWQCQLYEGQRLLGATVYAAESSSGAHSARRISGDLKGGHLVLVLILGALSLFLLVAGAFGFHWWRKQLLLRRFSALEHGIQPFPAQRKIEELERELETEMGQEPEPEPEPQLEPEPRQL
chain 2: SLAGGSPGAAEAPGSAQVAGLCGRLTLHRDLRTGRWEPDPQRSRRCLRDPQRVLEYCRQMYPELQIARVEQATQAIPMERWCGGSRSGSCAHPHHQVVPFRCLPGEFVSEALLVPEGCRFLHQERMDQCESSTRRHQEAQEACSSQGLILHGSGMLLPCGSDRFRGVEYVCCPPPGTPDPSGTAVGDPSTRSWPPGSRVEGAEDEEEEESFPQPVDDYFVEPPQAEEEEETVPPPSSHTLAVVGKVTPTPRPTDGVDIYFGMPGEISEHEGFLRAKMDLEERRMRQINEVMREWAMADNQSKNLPKADRQALNEHFQSILQTLEEQVSGERQRLVETHATRVIALINDQRRAALEGFLAALQADPPQAERVLLALRRYLRAEQKEQRHTLRHYQHVAAVDPEKAQQMRFQVHTHLQVIEERVNQSLGLLDQNPHLAQELRPQIQELLHSEHLGPSELEAPAPGGSSEDKGGLQPPDSKDDTPMTLPKGSTEQDAASPEKEKMNPLEQYERKVNASVPRGFPFHSSEIQRDELAPAGTGVSREAVSGLLIMGAGGGSLIVLSMLLLRRKKPYGAISHGVVEVDPMLTLEEQQLRELQRHGYENPTYRFLEERP

Variants of: B1
Experiment: co-IP (IP: FLAG, blot Myc-Lag3), band intensity quantified; read off a plot

Row | response [AU] | Variant
1 | ~20 | chain 2 L25A, chain 2 T26A, chain 2 H28A, chain 2 D30A, chain 2 C46A, chain 2 L47A, chain 2 Q71A, chain 2 T73A, chain 2 I76A
